Results: patent US20120252071A1 (ROCHE DIAGNOSTICS OPERATIONS, published 2012)
Changes are numbered by the printed parent chain. Names and notes keep the numbering of the source.

Experiments:
[1] = target: the molecule itself; test: non-reducing SDS-PAGE after 16 h at 37 C without reducing agent (self-association by disulfide bonds)
Protocol: Samples of T7 variants were prepared according to a procedure described in Example 4. T7 RNA polymerase and variants thereof were analyzed by gel electrophoresis on polyacrylamide gels containing sodium dodecylsulphate (SDS). Gradient gels (NuPAGE, 4-12%, Bis-Tris Gel, Invitrogen) were used. Typically, protein samples (0.26 mg/ml, 18 μl) were mixed with 6 μl of NuPAGE LDS (Lithium dodecyl sulfate; LDS may also be substituted by sodium dodecyl sulfate) sample buffer, (4×, Invitrogen). After heating for 2 min at 85° C., samples (20 μl) were applied on the gel. The total amount of protein in a single lane of the gel was between 1 μg and 3 μg. Gels were run in SDS Running Buffer (1×MES, Invitrogen) at 200 V for 1 hour.
Further, samples of wild-type T7 and T7 variants (0.2 to 0.3 mg/ml each) were incubated at 37° C. for 16 hours in 25 mM Tris/HCl, pH 7.5 (adjusted at 25° C.), 0.1 mM EDTA, 100 mM NaCl. Aliquots were removed and applied on the SDS gels under reducing conditions or under non-reducing conditions. After incubation a sample of each treated preparation was subjected to SDS polyacrylamide gel electrophoresis as described in Example 5. Results are depicted in FIG. 2 (reducing reagents absent) and FIG. 3 (10 mM DTT added).
With reference to FIG. 2 (reducing reagents absent), and in reference to Examples 5, 6, and 7, a stained SDS polyacrylamide gel is shown. […]

[2] = target: the molecule itself; test: non-reducing SDS-PAGE (self-association by disulfide bonds)

B1: T7 variant #8 [Cys125Ser, Cys347Ser, Cys492Ser, Cys515Ser, Cys723Ser, Cys839Ser] including His6-tag (enzyme)
chain: MNTINIAKNDFSDIELAAIPFNTLADHYGERLAREQLALEHESYEMGEARFRKMFERQLKAGEVADNAAAKPLITTLLPKMIARINDWFEEVKAKRGKRPTAFQFLQEIKPEAVAYITIKTTLASLTSADNTTVQAVASAIGRAIEDEARFGRIRDLEAKHFKKNVEEQLNKRVGHVYKKAFMQVVEADMLSKGLLGGEAWSSWHKEDSIHVGVRCIEMLIESTGMVSLHRQNAGVVGQDSETIELAPEYAEAIATRAGALAGISPMFQPCVVPPKPWTGITGGGYWANGRRPLALVRTHSKKALMRYEDVYMPEVYKAINIAQNTAWKINKKVLAVANVITKWKHSPVEDIPAIEREELPMKPEDIDMNPEALTAWKRAAAAVYRKDKARKSRRISLEFMLEQANKFANHKAIWFPYNMDWRGRVYAVSMFNPQGNDMTKGLLTLAKGKPIGKEGYYWLKIHGANCAGVDKVPFPERIKFIEENHENIMASAKSPLENTWWAEQDSPFCFLAFSFEYAGVQHHGLSYNCSLPLAFDGSCSGIQHFSAMLRDEVGGRAVNLLPSETVQDIYGIVAKKVNEILQADAINGTDNEVVTVTDENTGEISEKVKLGTKALAGQWLAYGVTRSVTKRSVMTLAYGSKEFGFRQQVLEDTIQPAIDSGKGLMFTQPNQAAGYMAKLIWESVSVTVVAAVEAMNWLKSAAKLLAAEVKDKKTGEILRKRSAVHWVTPDGFPVWQEYKKPIQTRLNLMFLGQFRLQPTINTNKDSEIDAHKQESGIAPNFVHSQDGSHLRKTVVWAHEKYGIESFALIHDSFGTIPADAANLFKAVRETMVDTYESSDVLADFYDQFADQLHESQLDKMPALPAKGNLNLRDILESDFAFA
notes: also called six-fold mutant; sextuple T7 variant; not shown: N-terminal His6-tag with linker
B1: no binding (tested: 2.9 µg of protein per lane) [1].

B2: T7 variant #26 [Cys723Ser, Ala702Val, Val795Ile] (enzyme)
chain: B1 chain with S125C, S347C, S492C, S515C, A702V, V795I, S839C
notes: not shown: N-terminal His-tag
B2: no binding [2].

B3: T7 variant #30 [Cys723Ser, Val426Leu, Val795Ile] (enzyme)
chain: B1 chain with S125C, S347C, V426L, S492C, S515C, V795I, S839C
notes: not shown: N-terminal His-tag
B3: no binding [2].

B4: T7 variant #28 [Cys723Ser, Val426Leu, Ala702Val] (enzyme)
chain: B1 chain with S125C, S347C, V426L, S492C, S515C, A702V, S839C
notes: not shown: N-terminal His-tag
B4: no binding [2].

B5: T7 variant #35 [Cys723Ser, Val426Leu, Val650Leu, Ala702Val, Val795Ile] (enzyme)
chain: B1 chain with S125C, S347C, V426L, S492C, S515C, V650L, A702V, V795I, S839C
notes: not shown: N-terminal His-tag
B5: no binding [2].

B6: T7 variant #36 [C125S, C347S, C492S, C515S, C723S, C839S, V426L, V650L, A702V, V795I] (enzyme)
chain: B1 chain with V426L, V650L, A702V, V795I
notes: not shown: N-terminal His-tag
B6: no binding [2].

B7: T7 variant #33 [Cys125Ser, Cys347Ser, Cys492Ser, Cys515Ser, Cys723Ser, Cys839Ser, Val426Leu, Ala702Val, Val795Ile] (enzyme)
chain: B1 chain with V426L, A702V, V795I
notes: not shown: N-terminal His-tag
B7: no binding [2].

B8: T7 variant #32 [Cys723Ser, Val426Leu, Ala702Val, Val795Ile] (enzyme)
chain: B1 chain with S125C, S347C, V426L, S492C, S515C, A702V, V795I, S839C
notes: not shown: N-terminal His-tag
B8: no binding [2].
